# Results from PMC8693861.
# Experiments:
# [1] = target: full-length N-terminal signaling domain of human Sonic hedgehog (ShhN), residues 24-193, without lipid attachments (UniProt Q15465); test: BLI; conditions: 4 μM SHH (per earlier reader's note; not printed in panel or legend); parent: est. 0.077; read off a plot
# [2] = target: biotinylated human HHAT-Avi-1D4 (pHR-CMV-TetO2-HHAT-wildtype-Avi-1D4) (human) (UniProt Q5VTY9); test: BLI; SHH on immobilised biotinylated HHAT-Avi-1D4, 22°C, same buffer without nhPalm-CoA
# [3] = target: biotinylated human HHAT-Avi-1D4 (pHR-CMV-TetO2-HHAT-wildtype-Avi-1D4) (human) (UniProt Q5VTY9); test: BLI; biotinylated HHAT-Avi-1D4 on streptavidin biosensors, 22°C, SHH in 10 mM HEPES pH 7.5, 150 mM NaCl, 0.06% DDM 40:1 CHS, 1 mM DTT, 5 mM CaCl2 with 5-10 mM nhPalm-CoA; multi-cycle kinetics, 300 s association and dissociation, 1:1.5 dilution series from 5 μM; one to two state binding model
Substance,response [1],fold reduction of binding without nhPalm-CoA against with nhPalm-CoA [2],percent reduction of binding without Palm-CoA [2],Kd [3]
biotinylated human HHAT-Avi-1D4 (pHR-CMV-TetO2-HHAT-wildtype-Avi-1D4) (from UniProt Q5VTY9) Y382A; Y384A,0.011 nm,–,–,–
biotinylated human HHAT-Avi-1D4 (pHR-CMV-TetO2-HHAT-wildtype-Avi-1D4) (from UniProt Q5VTY9) E59R,-0.012 nm,–,–,–
"full-length N-terminal signaling domain of human Sonic hedgehog (ShhN), residues 24-193, without lipid attachments (from UniProt Q15465 24-193) (domain or fragment)",–,3 fold,50%,3.7 µM
